Test: label from the status in PepcDB records

| Sequence | protein production |
| --- | --- |
| MRFSYIEPRAKYLISKLSKIWVFYIFLSFVVIGGLVWFMHNAIKSTQDNASSLTIQERLYRHEISRLQVKTDETLKLIKEAKKRLNYNDDIRDVLQGLLNIVPDSITINSIEIDQQSVVVSGKTPSKEAFYFLFQNKLNPMFDYSRAEFFPLSDGWFNFVSTNFSNSLLIKNPESIK | failed |
| MRGANERKTERARGLRQSDNDAEALLWSELRDRRLNGFKFVRQVAVGPYFADFACRDERLVVEVDGSQHQIGSGDARRDKFMVMNGWSVLRFWNTDIFNDRAAVLETIVAVLEKRLVREVRSADLTFIPGEKKR | not failed |
| MRGEGRRIGAMSETPEIPGSGYRTGEALLRAGDIAGAITAFRGHLAASPDDALGWFALGSALFFAQRWEETRAAYARAAAIDRAYTLGGLLRPGDVETALDPAPFLGQLPEMSMIIPPAHSGPLAVVGCDSAYFLDFGAALALSMDKAAPGWGLHLHLIAPTTPALDLLERLIGGLRAITLSFSLEHLPPALRAPEAQRTYLACLRFMRLPAILDEQQARAGRVPVVVLDADSLMCKPLLGPDDWRPPGPEGGWRAGWDVALKDSGLFPLGPLWRYSASCVGLAPTDEARAFAAHVATLLARQALTVNGLGWMIDQFALAVAIAARQTQSPAFRLGDWPDRLYRLYENPPDAALWSFCSQSKYDDRLYRDMVRLLLAEMG | failed |
| MRGKRGFFGHADSRVRLFCRRLTGKQRILLAGTASFLLAASCLYSILSCVSRFGEPGQRPAMGHIRSVVFRPERTRNIHSNIHKHENGLSENQGTARSVK | failed |
| MRGMAANQGERIRRRLSTGERREQLLSVGARLFSESPYDEVWIEQVAEIAGVSRGLLYHYFPNKRDFFAAVVERESERMLRMTAAVPGVPVREQLTAGLDAYLEYVRAHAHGYRAFHRADAAGDRAVRRVYQKALAAQERQILAALAADPEFGPAFEERGDVRLAVRGWLAFTTAVCLEWLRDPEPAREQVRDLCARALLGAVAP | not failed |
| MRGPFMGFSIEFGEANLDKLGVRRTSERVSQPPLTLKNYALSRSIGRGNTSDVRLATGPDGREVAIKLPLPATLRQHDAAERFGNEVRLTLQFRHPHVVRGFAGTPFGPGAFLALFYYPDGPLSNRLRGQPLPNEEALRILADIAAALAYLHRLGAVHQDVKPQNVYVSGGRAALGDLGSAYFVAQGSKTSGSPYYMAPEVYHGESTSSASDVYSLGVMAWELLTGARPFSGNSYEELMVAHLSRFPAPLASLRPELPRALSRLLDRTFAKRPHERPTADALRRALLEALGETPQEEDLPAEEVPLASQQAGRHTAAPRVTGPQGPAETPAQPERVRPARRGWNPFRRKG | failed |
| MRGRFFFRSFEATLIGSEFLVSPETPGTRFAKAPSFRSKTEKDLCSAHGAAASGVLPLGLLEELVRSSPRSSQASGPAGSRQPAQRAPGHQVPAAKMLELLVASLSLALAFFALLDGWYLVRVPCAVLRARLLQPRVRDLLAEQRYAGRVLPSDLDLLLHMNNARYLREADVARAAHLTRCGVLGALRDLNAHTVLAASCARYRRSLRLFEPFEVHTRLQGWDDRAFYLEARFVSLRDGFVCALLRFRQHVLGTSPDRVVQHLCKRRVEPPELPEDLKHWISYNETSSQLLRAESGLSDRKDQ | failed |
| MRGRMTRSQLILAILAGLVISIDNMISIVAFSSLIYQGALEIYIPLVINILAISVIIISASYLFMSSPPYAIAQLQDEAAILYSAMGLVIIKSMPSSSTNEAIFITILFMLGVTTCLTGLSFYFVGKFRFGNIIRYLPYPVICGFMAATGWLVLSGTFALLTGKALHQNWLVFFHKEEILLWAPGFIAGIVVYIFKEKLGYRYALQLMFISLVILFYALFYIFNLEYLVDPTEGYVLGPFNQSHIDSLMKPEIWQMIHYPFSMTLLNYIGLVILVSFIALLLNASSYELIVNKQLDLNKELRIAGIGNVFSGLLGGMVGYLSLSASTVAKEYGGARIIGVMAFVPMLLILCFGAVVVECFPKMAIGCYLFYIAFCFLSEWLINTWRLLNLSEYLIVLLILVIAIVFNMITAVAIGTVISIFIFAFRYSKINPVKYLFSGADYNSSFERNPISQSILSTQGDEIQFLKLQGFLFFGSIYRLLQLIKSIQKARYIILDFELVYNIDSSRIILMKNLKLHAEKNNISFAICSLKPIVYHELMKTNLLQSKTNWLKVFTDQESALEWCEDQVIEKYTENINIEEVTLEKQLLYLGFSSELVAWISEKASIKPYNPDDIICHEGEESNSVYFIHRGRVTAFVGDKRVLVVGSGNVLGEIAIYTHKKRTATLKTNEKTIVYEIDLKSIQELSKNKPLLLVQFHVCMAKILANRLSVLNKRIKVFDSTAILQ | failed |
| MRGWICVKLTKLNIKKYRAPIYKYALANVNLRSAKSTNSSIITVIPQGAKMEVLDEEDDWIKVMYNSQEGYVYKDLVSVSEYAWSNLNLREDKSTTSNIITVIPEKSRVEVLQVDGDWSKVVYDDKIGYVFNYFLSIDGNKPNELDYKYFYTDMIKFVNENNIKSTSDYLIVTDLRNKYTYIFKKDNGGWGQLYKWQCTIGKPETPTITGIFYISGRKPSFGTDEYSVKYATRIKGGYYYHSVLYDSTGSYIIDGRLGEALSHGCIRLSTENAKWIYDNIPDTTTVIIH | failed |
| MRHISPEELIALHDANISRYGGLPGMSDPGRAEAIIGRVQARVAYEEITDLFEVSATYLVATARGHIFNDANKRTALNSALLFLRRNGVQVFDSPELADLTVGAATGEISVSSVADTLRRLYGSAELEHHHHHH | not failed |
| MRHLKSGRKLNRHSSHRLALYRNQAKSLLTHGRITTTVPKAKELRGFVDHLIHLAKRGDLHARRLVLRDLQDVKLVRKLFDEIAPRYRDRQGGYTRVLKLAERRRGDGAPLALVELVE | not failed |
| MRHMSGDHAALVLGAGAGRRLGRSKQLLMRDGEPLLRRAARIALLTAPRRCVVVLGADADTLSEVLQDLDIEILRHPDWSEGMGSSLAALRRHVQGDPALRRSLILGCDQPALDAPHLRSLLEEADRAVSGCATSGYSGVRGIPAVVTHTAWADVPLQADSGLRGLFASLDMQSLGCVSAPALALDIDTPADLATAQQRGWVDAELEHHHHHH | failed |
| MRHRGGRGFRGWWLASTILLLVAEKPSHGYELAERLAEFGIEIPGIGHMGNIYRVLADLEESGFLSTEWDTTVSPPRKIYRITPQGKLYLREILRSLEDMKRRIETLEERIKRVLQEE | not failed |
| MRIAAALLAIALTGLSGAVWAETSAAIVARKPDLFHPETGLRIDRQRAPVPEDIPPPARKISALWARKLIARGALALDVYGAAQSRYDELDGTWLVPEPRQSLPGAVWLPEVGRGVLDAALQVYLERELERLTGGSKARAIVVFCVADCWMSWNAAQRIAGMGYLQVYWFPLGTDGWRELGWPLEPVEPVPVPVD | failed |
| MRICMVSDFFYPSIGGVEEHVYNLSQMLLSLGHKIVVLTHAYGDCSGIRYVTGYLKVYYLPIKVCYNQCILPTAVCNVPMLRAVLLRERVEVVHGHSAFSALAHEALMVGSLLGLKTVFTDHSLFGFADLSAALTNNLLEVNLGMVNHAICVSHIGKENTVLRARVAKHRVSVIPNAVDTALFTPDPQQRPSNDIINIVVASRLVYRKGIDLLAGIIPRFKNTPNINFIIVGDGPKRDLLEEIREKTNMQERVQMVGAVEHNRVRDFLVRGHIFLNTSLTEAYCMAIVEAASCGLQVVSTSVGGIPEVLPKSLILLAEPEIDAIYAAILIAIDRHRKSSFKVSPSVGNGHLASDANGKVKRRRRRKVDTPISPTQLPAVSAPPADQNSSTEPVMCPYRCNELVETLYNWEDVALRTVKVYDRVLNERSFTTSELVFAVWQHGSWFLVFFVVAHFLMRLLELWRPRKHVEIAQDVQRRAS | failed |
| MRIECYSWSDVSEQILEQAIALQNSAFEDMKGNFYQVDIPYKLVLAIDDNQVIGHVAVYLRDVYLDSFPETIGILSCVVVAHKYRGKGVAASLIKMAHAILKEHSVNFSILFAVSHAYYLSSGYIPMKNLTRFIENNEKKEFIYDGGMVCELGSQNWNVNILELNGEVV | failed |
| MRIGIMGLGRIGAFHAETLSGLPAVTSLVVTDPFTDAAKSAAERFGAEVADSPEAVLAAGVDGVVVAAATDAHPGLVLAAVEAGVPVFCEKPVARTMREGVAVLEAVRDAGVEIQIGYNRRFDAGFVAARAAVASGELGALHTVRSTTLDPAPPPPAYVAASGGIFRDCSVHDFDIIRWVTGREVVEVYATGGNRGADYIAAAGDADTTAAVLTLDDGTLAVVSNSRHNARGHDVRMELHGFRDSIAVGLEDRLPLRSVEPGTSFPAGTPHDFFMDRFAAAYRAELTAFTEVVAGRRPSPCTVADALEAGWIAEACTLSLHSHRPVTVEEVRRQS | failed |
| MRIIAITEKVIKELFRDKRTLAMMFLAPILIMFLMNVMFSANSNTKVKIGTINVNTKVVSNLDNIKHIQVRSFKFNSSAKKALKSNKIDALISEDNKSYTVFYANTDSSKTTLTRQAFKTAVNTMNSKELISQVKILANKNPKLAQSLQTRSKYIKEKYNYGNKNTGFFAKMIPILMGFMVFFFVFLISGMALLKERTSGTLDRLLATPVKRSDIVFGYMLSYGILAIIQTIVIVLSTIWLLDIQVVGSIFSVIIVNFILALVALSLGILMSTLAKSEFQMMQFIPLIIMPQLFFSGIIPLENMASWAQTVGKILPLSYSGDALTKIIMYGQGLPNVSSNLLVLLLFLIILTIANIFGLKRYRKV | failed |
| MRILDYDKVIERILEFIREKGNNGVVIGISGGVDSATVAYLATKALGKEKVLGLIMPYFENKDVEDAKLVAEKLGIGYKVINIKPIVDSFVENLELNLDRKGLGNIMSRTRMIMLYAHANSLGRIVLGTSNRSEFLTGYFTKWGDGASDYAPIINLYKTEVWEIAKRIGVPERIVKKKPSAGLWEGQTDEDELGISYNLLDEILWRMIDLKIGKEEIAKDLGIPLSLVERVEELIKKSEHKRRLPIGPSFEDLIVGP | not failed |
| MRILIASQPIAGHVLPLREIARELARRGHELRWYTGRKFRPQVEAAGAVWEGFVHARDYDDANFDAAFPGRSARRGLAQLLFDLRHVFVGQMEGQFYDLRDLERRWRPDVVLADQTVGAALLREELGGPPVALLGVLPLGIASRDTAPFGLGLAPLGGAAGQLRNRALQVLTERVVFRGISAQLADLCTWLGLPARSFAPPVAPSLMLQPSVPRLEYLRRDLPPQVRFIGPLVLPAGEFTPPAWWNDILTAERPVVLVTQGTLATRPEQLLRPALAALADEDVLVVAAGVAPERLGPLPANARAAAFVPFTALLPHVAVSLTNGGYGGTVQALSHGVPCVVAGRSEDKAEVAARVAYSGAGLNLGTATPSPARIRAAVRRVLREPAFREQAGELGHELRQHDAPREAADWLETLGGKKLEHHHHHH | failed |
| MRILIPFKANNPKSRLSSILSEEERKELARLMLLDVIDAAKPFGEIKVVCPSELDVEGVEVVVDTSDLNTTVNKVMDEAPLAVIMSDLPLLSEEVLKRFFETEGDVVVAPGRKGGTNMLLVRKRGFRVSYHFGSFFKHLEMARKMGMKAKIFDSFYSSVDIDDESDLLELMMHGSGKKSYEFLRKIGFSVSFEETPRLERRVFMQ | failed |
| MRILLVLAHPLEDSFAAAVARTAREALEASGHVVDLFDLYAENFDPRLSKAERGGYFDQPYDTSAVADIVARLKAADGLILVFPQWWFNFPAILKGFFDRVFAPGVAFSHDAAGGRIVPQLTHIRLLYALTTTGSPWWLVRLYMGDPVRRLLKRGIAAFCSKGLNFRMLSLHDMDRASDVKRRAHLDRVRKLLSAIR | failed |
| MRISKTTKIGALTLIALFLLYFGLNYLKGFNVFKRANVYYAAFPEVKNVNIASPVLVNGYKVGVVKSLSFDYKNGRSIVVGIDLESEYRMPKGSHLAIHQTALSGAELRIIQGDPRDGYLNPGDTIRSETPDDIMSVTSNKIVPSVVNMMPKVDSVIVGLANMVNNPNLAVMMENMAATAQRLNRLTASLDKSIGTQLPAVMANTRTITDNVAMLSEELKQLKLEALMAELQATSENLRSFSDQIRNSNGSLGMLLNDKSLYMRLDSMASSADALLRDLKANPKRYVHFSVF | failed |
